The text below walks through data of patent EP4361176A1.

Where a chain is given by its changes, count along the chain named.

B1: 04H1389-Ks473/04L1615-k0MT//04H1389-Hs482/04L1615-k0MT (antibody)
heavy 1: EVQLVESGGGLVKPGGSLRLSCAASGFTFSSKTMNWVRQAPGKGLEWVSSISTQSHYIYYAESVKGRFTISRDNAKNSLYLQMNSLRAEDTAVYYCARYGKREDMLWVFDYWGQGTLVTVSSASTKGPSVFPLAPSSKSTSGGTAALGCLVKDYFPEPVTVSWNSGALTSGVHTFPAVLQSSGLYSLSSVVTVPSSSLGTQTYICNVNHKPSNTKVDKRVEPKSCDKTHTCPPCPAPEFQWGPMVFLFPPKPKDVLMISRTPEVTCVVVDVSDEEPEVKFNWYVDGVEVHNAKTKPREEQYNATYRVVSVLPVLHQDWLNGKEYKCKVSNDALPAPIEKTISKAKGQPREPQVYTLPPSREEMTKNQVSLWCLVKGFYPSDIAVEWESNGQPENNYKTTPPVLDSDGSFFLYSKLTVDKSRWQQGNVFSCSVMHEALHAHTTRKELSLSP
heavy 2: EVQLVESGGGLVKPGGSLRLSCAASGFTFSSKTMNWVRQAPGKGLEWVSSISTQSHYIYYAESVKGRFTISRDNAKNSLYLQMNSLRAEDTAVYYCARYGKREDMLWVFDYWGQGTLVTVSSASTKGPSVFPLAPSSKSTSGGTAALGCLVKDYFPEPVTVSWNSGALTSGVHTFPAVLQSSGLYSLSSVVTVPSSSLGTQTYICNVNHKPSNTKVDKRVEPKSCDKTHTCPPCPAPELLAGPSVFLFPPKPKDVLMISRTPEVTCVVVDVSHEEPEVKFNWYVDGVEVHNAKTKPREEQYNATYRVVSVLPVLHQDWLNGKEYKCKVSNDALPKPDEETISKAKGQPREPQVYTLPPSREEMTKNQVSLSCAVKGFYPSDIAVEWESNGQPENNYKTTPPVLDSDGSFFLVSKLTVDKSRWQQGNVFSCSVMHEALHAHTTRKELSLSP
light: DIVMTQSPLSLPVTPGEPASISCQGPSTGVGDYNYVHWYQQKPGQAPRLLIYFTSKKPSGVPDRFSGSGSGTDFTLKISRVEAEDVGVYYCQTYAAPLGPMFGQGTKLEIKRTVAAPSVFIFPPSDEQLKSGTASVVCLLNNFYPREAKVQWKVDNALQSGNSQESVTEQDSKDSTYSLSSTLTLSKADYEKHKVYACEVTHQGLSSPVTKSFNRGEC
B2: 04H1389-Km481/04L1615-k0MT//04H1389-Hm498/04L1615-k0MT (antibody)
heavy 1: B1 heavy 1 with I337E, Y354C
heavy 2: B1 heavy 2 with K335A, D337E, E361C
light: B1 light
B3: 04H1389-Km462/04L1615-k0MT//04H1389-Hm445/04L1615-k0MT (antibody, human IgG1, kappa)
heavy 1: B1 heavy 1 with Y354C, A439N, T441Y, R443Q, E445S
heavy 2: B1 heavy 2 with E361C, A439N, T441Y, R443Q, E445S
light: B1 light
B4: 04H1389-Km461/04L1615-k0MT//04H1389-Hm443/04L1615-k0MT (antibody, human IgG1, kappa)
heavy 1: B1 heavy 1 with I337E, Y354C, A439N, T441Y, R443Q, E445S
heavy 2: B1 heavy 2 with K335A, D337E, E361C, A439N, T441Y, R443Q, E445S
light: B1 light
B5: 04H1389-Ks461/04L1615-k0MT//04H1389-Hs443/04L1615-k0MT (antibody, human IgG1, kappa)
heavy 1: B1 heavy 1 with I337E, A439N, T441Y, R443Q, E445S
heavy 2: B1 heavy 2 with K335A, D337E, A439N, T441Y, R443Q, E445S
light: B1 light
B6: 04H1389-Ks462/04L1615-k0MT//04H1389-Hs445/04L1615-k0MT (antibody, human IgG1, kappa)
heavy 1: B1 heavy 1 with A439N, T441Y, R443Q, E445S
heavy 2: B1 heavy 2 with A439N, T441Y, R443Q, E445S
light: B1 light
B7: 04H1654-KT461/04L1612-lam1//04H1656-HT443/04L1612-lam1 (antibody, human IgG1, lambda)
heavy 1: QVQLVESGGGVVQPGGSLRLSCAASGFTFSSKTMNWVRQAPGKGLEWVSSISTQSHYIYYARSVRGRFTISRDNAKNSLYLQMNSLRAEDTAVYYCARYGKREDMLWVFDYWGQGTLVTVSSASTKGPSVFPLAPSSKSTSGGTAALGCLVKDYFPEPVTVSWNSGALTSGVHTFPAVLQSSGLYSLSSVVTVPSSSLGTQTYICNVNHKPSNTKVDKRVEPKSCDKTHTCPPCPAPEFQWGPMVFLFPPKPKDVLMISRTPEVTCVVVDVSDEEPEVKFNWYVDGVEVHNAKTKPREEQYNATYRVVSVLPVLHQDWLNGKEYKCKVSNDALPAPEEKTISKAKGQPREPQVYTLPPSRKEMTKNQVSLTCLVKGFYPSDIAVEWESNGQPENNYKTTPPVLDSDGSFFLYSKLTVDKSRWQQGNVFSCSVMHEALHNHYTQKSLSLSP
heavy 2: B7 heavy 1 with R62E, K101A, F239L, Q240L, W241A, M244S, D273H, K339E, K361E, K444E
light: QSALTQPPSASGSPGQSVTISCEGPSTGVGDYTYVHWYQQHPGKAPKLMIYFTSKKPSGVPDRFSGSKSGNTASLTVSGLQAEDEADYYCQTYAAPLGPMFGGGTKLTVLGQPKAAPSVTLFPPSSEELQANKATLVCLISDFYPGAVTVAWKADSSPVKAGVETTTPSKQSNNKYAASSYLSLTPEQWKSHRSYSCQVTHEGSTVEKTVAPTECS
B8: 04H1654-KT473/04L1612-lam1//04H1656-HT482/04L1612-lam1 (antibody)
heavy 1: B7 heavy 1 with E337I, N439A, Y441T, Q443R, S445E
heavy 2: B1 heavy 2 with E1Q, L11V, K13Q, K65R, K101A, S371T, A373L, V412Y, K444E
light: B7 light
B9: 04H1654-KT481/04L1612-lam1//04H1656-HT498/04L1612-lam1 (antibody)
heavy 1: B7 heavy 1 with N439A, Y441T, Q443R, S445E
heavy 2: QVQLVESGGGVVQPGGSLRLSCAASGFTFSSKTMNWVRQAPGKGLEWVSSISTQSHYIYYAESVRGRFTISRDNAKNSLYLQMNSLRAEDTAVYYCARYGAREDMLWVFDYWGQGTLVTVSSASTKGPSVFPLAPSSKSTSGGTAALGCLVKDYFPEPVTVSWNSGALTSGVHTFPAVLQSSGLYSLSSVVTVPSSSLGTQTYICNVNHKPSNTKVDKRVEPKSCDKTHTCPPCPAPELLAGPSVFLFPPKPKDVLMISRTPEVTCVVVDVSHEEPEVKFNWYVDGVEVHNAKTKPREEQYNATYRVVSVLPVLHQDWLNGKEYKCKVSNDALPAPEEETISKAKGQPREPQVYTLPPSREEMTKNQVSLTCLVKGFYPSDIAVEWESNGQPENNYKTTPPVLDSDGSFFLYSKLTVDKSRWQQGNVFSCSVMHEALHAHTTREELSLSP
light: B7 light
B10: ABAM001 (antibody, human IgG1, V domains shown)
VH: EVQLVESGGDLVKPGGGLRLSCAASGFTFSSYTMHWVRQAPGKGLEWVSSISSRSRYKYYADSVKGRFTISRDNAKNSLYLQMNSLRAEDTAVYYCARFGIKNKRNWVLDYWGQGTLVTVSS
VL: QSALTQPPSASGSPGQTVTISCTGTSTDVGAYNYVSWYQQHPGKAPKLMIYQVSKRPSGVPDRFSGSKSGNTASLTVSGLQAEDEADYFCSLYTTRPQLAFGGGTKLTVL
B11: ABAM002 (antibody, human IgG1, V domains shown)
VH: EVQLVESGGDLVKPGGGLRLSCAASGFTFSSYTMNWVRQAPGKGLEWVSSISSRSTYAHYADSVKGRFTISRDNAKNSLYLQMNSLRAEDTAVYYCARFGGRGHLLWVFDYWGQGTLVTVSS
VL: B10 VL with A31T, V53G, L92T, Y93V, T94S, T95G, R96D, P97F, Q98H, L99V
B12: ABAM003 (antibody, human IgG1, V domains shown)
VH: B10 VH with S31G, K58A, Y59S, K104H, R105L, L109F
VL: QSALTQPPSASGSPGQTVTISCTGTSSDVGDYNYVSWYQQHPGKAPKLMIYGVSKRPSGVPDRFSGSKSGNTASLTVSGLQAEDEADYFCSTVSTSHSPVFGGGTKLTVL

In one assay the target is human FcγRIIb extracellular domain with C-terminal His-tag (human) (UniProt P31994). Kind of assay: SPR (Biacore T200), FcγRIIb, amount bound per unit captured antibody. (In general: In SPR one partner is held on a chip, and binding of the other changes the refractive index at the surface.)
human FcγRIIb extracellular domain with C-terminal His-tag (human), sequence (P31994 43-217): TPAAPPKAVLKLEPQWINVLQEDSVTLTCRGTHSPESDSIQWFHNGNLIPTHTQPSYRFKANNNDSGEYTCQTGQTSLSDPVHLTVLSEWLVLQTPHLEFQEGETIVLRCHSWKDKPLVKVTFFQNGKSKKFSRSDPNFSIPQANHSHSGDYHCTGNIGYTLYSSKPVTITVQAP
For the molecule B1, the Binding amount came to 0.026.
With B2, the Binding amount is 0.021.
Same read-out and setting: as for B3, the figure is 0.029; as for B4, 0.024; as for B5, 0.024.
Same read-out and setting: as for B6, the figure is 0.03.

Another assay has the same target. Kind of assay: SPR; binding amount / that of 04H1637-G1m/04L1610-lam1.
On to B7, for which the Relative binding amount was found to be 3.1.
The same measure, in the same setting: as for B8, the figure is 3.2; as for B9, 2.8.

The target of another assay is T1, hCTLA4-His-BAP (human).
T1 sequence (chain, biotin on the BAP-tag): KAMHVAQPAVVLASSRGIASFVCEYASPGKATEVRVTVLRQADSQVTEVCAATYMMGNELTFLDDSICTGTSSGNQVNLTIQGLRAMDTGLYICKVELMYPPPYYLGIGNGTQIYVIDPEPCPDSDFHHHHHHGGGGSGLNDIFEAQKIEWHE
Kind of assay: IgG ELISA, absorbance with / without AMP. For orientation: In an ELISA, binding on a coated surface is turned into a signal by an enzyme label.
Take B10: the S/N is greater than 1.45.
The same measure, in the same setting: as for B11, the figure is greater than 36.
On the same count and under the same terms, as for B12, the figure is greater than 1.57.

The next assay addresses T1, hCTLA4-His-BAP (human). Kind of assay: IgG ELISA, 2.5 ug/mL IgG, no AMP.
Take B10: the 450 nm Absorbance was 3.46.
Still for that read-out and setting: as for B11, the figure is 0.139; as for B12, 3.18.

A further assay deals with human FcγRIIb extracellular domain with C-terminal His-tag (human) (UniProt P31994). Kind of assay: SPR (Biacore T200), FcγRIIb 1000 nM, amount bound per unit captured antibody.
In turn, B7 returned a Binding amount of 0.025.
Same read-out and setting: as for B8, the figure is 0.026; as for B9, 0.022.

The next assay deals with T1, hCTLA4-His-BAP (human). The assay can be described thus: IgG ELISA, 2.5 ug/mL IgG, 1 mM AMP; overflow set to 5.00.
Consider B10, for which the 450 nm Absorbance was greater than 5.
Still for that read-out and setting: as for B11, the figure is greater than 5; as for B12, greater than 5.

In a further assay the target is human FcγRIIb extracellular domain with C-terminal His-tag (human) (UniProt P31994). The assay can be described thus: SPR; binding amount / that of 04H1389-G1m/04L1615-k0MT.
On to B1, for which the Relative binding amount was 2.3.
Consider B2, for which the Relative binding amount was determined as 1.9.
The same measure, in the same setting: as for B3, the figure is 2.6.
B4 displayed a Relative binding amount of 2.1.
B5 gave a Relative binding amount of 2.1.
The same measure, in the same setting: as for B6, the figure is 2.6.
